{
  "source": "paper PMC2770179",
  "about": "(Journal of molecular catalysis. B, Enzymatic, 2009)",
  "key": {"[1]": {"target": "T1, L2S of hE2 (residues 128-330) mutant K276A (human, UniProt P10515 214-416, K276A)", "T1 sequence (looked up)": "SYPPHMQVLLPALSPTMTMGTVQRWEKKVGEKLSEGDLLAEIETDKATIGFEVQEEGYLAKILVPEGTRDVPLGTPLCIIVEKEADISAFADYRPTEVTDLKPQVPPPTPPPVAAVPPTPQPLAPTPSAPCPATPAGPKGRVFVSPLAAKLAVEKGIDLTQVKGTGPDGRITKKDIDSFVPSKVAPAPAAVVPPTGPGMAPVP", "experiment": "SPR"}, "[2]": {"target": "T2, L2S of hE2 (residues 128-330) mutant R297A (human, UniProt P10515 214-416, R297A)", "T2 sequence (looked up)": "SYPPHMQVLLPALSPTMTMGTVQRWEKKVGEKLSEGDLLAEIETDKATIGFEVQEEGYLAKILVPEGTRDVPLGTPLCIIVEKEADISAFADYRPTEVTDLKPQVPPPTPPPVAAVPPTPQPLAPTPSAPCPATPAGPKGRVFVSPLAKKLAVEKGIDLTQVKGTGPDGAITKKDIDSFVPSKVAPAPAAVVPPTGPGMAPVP", "experiment": "SPR"}},
  "data": [
    {"binder": "human pyruvate dehydrogenase (E1), wild type, α2β2 heterotetramer (complex) chain 1: FANDATFEIKKCDLHRLEEGPPVTTVLTREDGLKYYRMMQTVRRMELKADQLYKQKIIRGFCHLCDGQEACCVGLEAGINPTDHLITAYRAHGFTFTRGLSVREILAELTGRKGGCAKGKGGSMHMYAKNFYGGNGIVGAQVPLGAGIALACKYNGKDEVCLTLYGDGAANQGQIFEAYNMAALWKLPCIFICENNRYGMGTSVERAAASTDYYKRGDFIPGLRVDGMDILCVREATRFAAAYCRSGKGPILMELQTYRYHGHSMSDPGVSYRTREEIQEVRSKSDPIMLLKDRMVNSNLASVEELKEIDVEVRKEIEDAAQFATADPEPPLEELGYHIYSSDPPFEVRGANQWIKFKSVS chain 2: LQVTVRDAINQGMDEELERDEKVFLLGEEVAQYDGAYKVSRGLWKKYGDKRIIDTPISEMGFAGIAVGAAMAGLRPICEFMTFNFSMQAIDQVINSAAKTYYMSGGLQPVPIVFRGPNGASAGVAAQHSQCFAAWYGHCPGLKVVSPWNSEDAKGLIKSAIRDNNPVVVLENELMYGVPFEFPPEAQSKDFLIPIGKAKIERQGTHITVVSHSRPVGHCLEAAAVLSKEGVECEVINMRTIRPMDMETIEASVMKTNHLVTVEGGWPQFGVGAEICARIMEGPAFNFLDAPAVRVTGADVPMPYAKILEDNSIPQVKDIIFAIKKTLNI", "values": [
      {"measurement": "fold increase in KD against wild-type L2S", "setting": "[1]", "result": "~86", "unit": "fold"},
      {"measurement": "fold increase in KD against wild-type L2S", "setting": "[2]", "result": 6.8, "unit": "fold"}
    ]}
  ]
}
